Assays:
[1] = target: T1, native Renilla reniformis luciferase (RLuc) (Renilla reniformis, UniProt P27652); assay: Michaelis-Menten kinetics of native Renilla luciferase (RLuc) with CTZ; assay type: biochemical; details: substrate CTZ; Table 3
T1 construct: host and tag of RLuc not clearly stated
T1 sequence (P27652 1-311): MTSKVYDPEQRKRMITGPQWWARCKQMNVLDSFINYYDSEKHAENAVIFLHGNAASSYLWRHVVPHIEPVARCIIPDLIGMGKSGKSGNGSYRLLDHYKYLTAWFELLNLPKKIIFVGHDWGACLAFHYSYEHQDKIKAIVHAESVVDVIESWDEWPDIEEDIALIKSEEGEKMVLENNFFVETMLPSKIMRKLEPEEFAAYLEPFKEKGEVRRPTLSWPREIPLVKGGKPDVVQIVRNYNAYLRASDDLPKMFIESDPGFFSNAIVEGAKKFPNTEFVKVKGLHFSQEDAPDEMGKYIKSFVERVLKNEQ
Source text: Synthetic genes and oligonucleotides were purchased from Integrated DNA Technologies or GenScript. The synthetic gene was inserted between NdeI and XhoI sites of a pET29b+ vector, containing an N-terminal hexahistidine tag followed by a TEV protease cleavage site and a C-terminal stop codon. Restriction endonucleases, Q5 PCR polymerase, and T4 ligase were purchased from NEB. Plasmid DNA, PCR products, or digested fragments were purified by Qiagen DNA purification kits. DNA sequences were analyzed by Genewiz. Coelenterazine (CTZ) was purchased from Gold Biotechnology. Diphenylterazine (DTZ), pyridyl diphenylterazine (8pyDTZ), and Furimazine (FRZ) were purchased from MedChemExpress. […] DNA and protein concentrations were determined by a NanoDrop™ small-volume 8 channel UV/vis spectrometer. […] All luminescence measurements were acquired by a Biotek Synergy Neo2T™ Multi-Mode Plate Reader. To convert relative arbitrary unit (RLU) to the number of photons, Neo2 plate reader was calibrated by determining the chemiluminescence of luminol with known quantum yield in the presence of horseradish peroxidase and hydrogen peroxide in K2CO3 aqueous solution as previously described^45. SDS PAGE and luminescence images were captured by a Bio-Rad ChemiDocT™ XRS+. Images were analyzed using the Fiji image analysis software. […]

[2] = Luminescence decay curves of LuxSit-i in various pH buffers; assay type: biochemical
Experimental: (§1) FIG. 10. Additional characterization of LuxSit variants. (a) Normalized emission kinetics of 15,000 intact HeLa cells expressing LuxSit-i, 100 nM purified LuxSit-i, or 100 nM purified LuxSit-f in the presence of 50 μM DTZ. The more extended emission kinetics in HeLa cells is likely due to the diffusion rate of DTZ across cell membranes. […] (c) Luminescent quantum yield was estimated from the integrated luminescence signal until completely converting 125 pmol substrates to photons in the presence of 50 nM corresponding luciferase (see Methods). All data points were plotted as the average of triplicate measurements.

[3] = Luciferase activities of re-designed sequences based on LuxSit-i (Table 1); assay type: biochemical; details: LuxSit-f and re-designed sequences based on LuxSit-i (Table 1)
Source text: In another embodiment, the proteins comprise an amino acid sequence at least 30%, 35%, 40%, 45%, 50%, 55%, 60%, 65%, 70%, 75%, 80%, 85%, 90%, 91%, 92%, 93%, 94%, 95%, 96%, 97%, 98%, 99%, or 100% identical to the amino acid selected from the group consisting of SEQ ID NO:1-181, as shown in Table 1. SEQ ID NO:5-181 in Table 1 are re-designed amino acid sequences based on LuxSit-i (SEQ ID NO:2), with their luciferase activities shown.

[4] = Circular dichroism spectra and thermal denaturation; assay type: physicochemical; details: 220 nm, 25° C. to 95° C.
Source text: Synthetic genes and oligonucleotides were purchased from Integrated DNA Technologies or GenScript. The synthetic gene was inserted between NdeI and XhoI sites of a pET29b+ vector, containing an N-terminal hexahistidine tag followed by a TEV protease cleavage site and a C-terminal stop codon. Restriction endonucleases, Q5 PCR polymerase, and T4 ligase were purchased from NEB. Plasmid DNA, PCR products, or digested fragments were purified by Qiagen DNA purification kits. DNA sequences were analyzed by Genewiz. Coelenterazine (CTZ) was purchased from Gold Biotechnology. Diphenylterazine (DTZ), pyridyl diphenylterazine (8pyDTZ), and Furimazine (FRZ) were purchased from MedChemExpress. […] DNA and protein concentrations were determined by a NanoDrop™ small-volume 8 channel UV/vis spectrometer. […] All luminescence measurements were acquired by a Biotek Synergy Neo2T™ Multi-Mode Plate Reader. To convert relative arbitrary unit (RLU) to the number of photons, Neo2 plate reader was calibrated by determining the chemiluminescence of luminol with known quantum yield in the presence of horseradish peroxidase and hydrogen peroxide in K2CO3 aqueous solution as previously described^45. SDS PAGE and luminescence images were captured by a Bio-Rad ChemiDocT™ XRS+. Images were analyzed using the Fiji image analysis software.
Purified protein samples were prepared at 15 μM in pH 7.4 10 mM phosphate buffer. Spectra from 190 nm to 260 nm were recorded at 25° C., 50° C., 75° C., 95° C., and after cooling back to 25° C. Thermal denaturation was monitored at 220 nm from 25° C. to 95° C. […]

[5] = Luminescent quantum yield of LuxSit variants; assay type: biochemical; details: consuming 125 pmol of DTZ in PBS with 50 nM recombinant luciferase; estimated relative to reported quantum yield of RLuc; mean ± s.d., n = 3
Experimental: as §1
For Michaelis-Menten kinetics measurements, 25 μL of serial diluted DTZ substrate in Tris pH 8.0 buffer was added into the wells of a white 96-well half-area microplate containing 25 μL of purified luciferases (final enzyme concentration: 100 nM; substrate concentration: 0.78 to 50 μM). […] The luminescence signals were monitored until the reactions were completed (0.1 s integration and measurements were taken every 5 s for a total of 40 min). […] In vitro luminescence activity measurements of LuxSit-i expressing HEK293T or HeLa cells were done similarly as 15,000 intact cells or lysates were used in the assay instead of purified luciferases. […] Data were shown as the total luminescence signal over the first 10 min. […]

[6] = Substrate specificity on coelenterazine substrate analogs; assay type: biochemical
Experimental: FIG. 4. High substrate specificity of designed luciferases allows multiplexed bioassay. (a) Chemical structures of Coelenterazine substrate analogs. (b) Activity of LuxSit-i on selected luciferin substrates. Luminescence image (top) and signal quantification (bottom) of the indicated substrate in the presence of 100 nM LuxSit-i. LuxSit-i has high specificity for the design target substrate, DTZ. (c) Heatmap visualization of the substrate specificity of LuxSit-i. Renilla luciferase (RLuc), Gaussia luciferase (GLuc), engineered NLuc from Oplophorus luciferase. […] (d) Luminescence emission spectrum of LuxSit-i/DTZ and RLuc/PP-CTZ can be spectrally resolved by 528/20 and 390/35 filters (shown in dashed bars) and only recognize the cognate substrate. (e) Schematic of the multiplex luciferase assay. […] (f-g) Luminescence signals from cells can be measured under either substrate-resolved or spectrally resolved methods by a plate reader. (f) For the substrate-resolved method, luminescence intensity was recorded without a filter after adding either PP-CTZ or DTZ. […] Luminescence signals were acquired from the lysate of 15,000 cells in CelLytic™ M reagent while CyOFP fluorescence signal was used to normalize cell numbers and transfection efficiencies. […]

[7] = Michaelis-Menten kinetics measurements of purified luciferases; assay type: biochemical
Experimental: For Michaelis-Menten kinetics measurements, 25 μL of serial diluted DTZ substrate in Tris pH 8.0 buffer was added into the wells of a white 96-well half-area microplate containing 25 μL of purified luciferases (final enzyme concentration: 100 nM; substrate concentration: 0.78 to 50 μM). Measurements were taken every 1 min (0.1 s integration and 10 s shaking between each interval) for a total of 20 min. Initial velocities were estimated as the average of the light intensities from the first three data points to fit the Michaelis-Menten equation. All relative arbitrary unit (RLU) per second values were converted to photon/s by the luminol-H2O2—HRP calibration method^45. Following the equation: Imax=LQY×kcat×[E], Imax is the maximal photon flux (photon s^−1), [E] is the total enzyme concentration, and V ax is the maximum photon flux per molecule (photon s^−1 molecule^−1) from the fitting of the Michaelis-Menten equation. To determine the luminescent quantum yields, 25 μL of 5 μM individual substrate in PBS was injected into 25 μL PBS containing 100 nM corresponding luciferase. DTZ was used for all LuxSit variants while CTZ was used as the substrate of native RLuc. The luminescence signals were monitored until the reactions were completed (0.1 s integration and measurements were taken every 5 s for a total of 40 min). […] To record emission spectra, 25 μL of 50 μM DTZ in PBS were injected into 25 μL of 200 nM pure luciferases and the emission spectra were collected with 0.1 s integration and 2 nm increments from 300 to 700 num. In vitro luminescence activity measurements of LuxSit-i expressing HEK293T or HeLa cells were done similarly as 15,000 intact cells or lysates were used in the assay instead of purified luciferases. To evaluate the substrate specificity, 25 μL of 50 μM substrate analogs in PBS were added to 25 μL of 200 nM indicated luciferases, and the signals were recorded over 20 min. Data were shown as the total luminescence signal over the first 10 min. We normalized the data by setting the highest emission substrate at 100%.

Row | Molecule | Vmax [1] [photon s^−1 molecule^−1] | pH dependence of DTZ luminescent reaction [2] | Activity [3] | thermal stability (CD melting) [4] | LQY (luminescent quantum yield) [5] [%] | selectivity for DTZ over bis-CTZ [6] [fold] | higher photon flux over LuxSit (25 μM DTZ) | Relative emission intensity (integrated luminescence intensity over the first 20 min, normalized to LuxSit, 25 μM DTZ in Tris pH 8.0 buffer) | photon flux (photon s^−1) greater than native Renilla reniformis luciferase (RLuc) [7] [%]
1 | Oc1ccc(Cc2nc3c(Cc4ccccc4)nc(-c4ccc(O)cc4)cn3c2O)cc1 [CTZ, Coelenterazine] | 0.26 |  |  |  |  |  |  |  | 
2 | LuxSit-i: LuxSit variant R60S/A96L/M110V, SEQ ID NO:2, named for high brightness (protein, VARIANT 1 optionally absent; VARIANT 118 optionally absent) MSEEQIRQFLRRFYEALDSGDADTAASLFHPGVTIHLWDGVTFTSREEFREWFERLFSTSKDAQREIKSLEVRGDTVEVHVQLHATHNGQKHTVDLTHHWHFRGNRVTEVRVHINPTG |  | pH-dependent | 763.6 | thermostable | 14.5 ± 1.8 | 50 | more than 100 fold | 153 | 38

Reference: US20250075190A1, “DE NOVO DESIGNED LUCIFERASE” (UNIVERSITY OF WASHINGTON, priority 2022, published 2025)
